B1: Matrilin-1 (Homo sapiens), P21941 (parent)
chain: MRVLSGTSLMLCSLLLLLQALCSPGLAPQSRGHLCRTRPTDLVFVVDSSRSVRPVEFEKVKVFLSQVIESLDVGPNATRVGMVNYASTVKQEFSLRAHVSKAALLQAVRRIQPLSTGTMTGLAIQFAITKAFGDAEGGRSRSPDISKVVIVVTDGRPQDSVQDVSARARASGVELFAIGVGSVDKATLRQIASEPQDEHVDYVESYSVIEKLSRKFQEAFCVVSDLCATGDHDCEQVCISSPGSYTCACHEGFTLNSDGKTCNVCSGGGGSSATDLVFLIDGSKSVRPENFELVKKFISQIVDTLDVSDKLAQVGLVQYSSSVRQEFPLGRFHTKKDIKAAVRNMSYMEKGTMTGAALKYLIDNSFTVSSGARPGAQKVGIVFTDGRSQDYINDAAKKAKDLGFKMFAVGVGNAVEDELREIASEPVAEHYFYTADFKTINQIGKKLQKKICVEEDPCACESLVKFQAKVEGLLQALTRKLEAVSKRLAILENTVV

Variants of: B1
Settings: with co2a1_bovin COL2A1, P02459
Chain of co2a1_bovin COL2A1, P02459 (P02459 whole entry): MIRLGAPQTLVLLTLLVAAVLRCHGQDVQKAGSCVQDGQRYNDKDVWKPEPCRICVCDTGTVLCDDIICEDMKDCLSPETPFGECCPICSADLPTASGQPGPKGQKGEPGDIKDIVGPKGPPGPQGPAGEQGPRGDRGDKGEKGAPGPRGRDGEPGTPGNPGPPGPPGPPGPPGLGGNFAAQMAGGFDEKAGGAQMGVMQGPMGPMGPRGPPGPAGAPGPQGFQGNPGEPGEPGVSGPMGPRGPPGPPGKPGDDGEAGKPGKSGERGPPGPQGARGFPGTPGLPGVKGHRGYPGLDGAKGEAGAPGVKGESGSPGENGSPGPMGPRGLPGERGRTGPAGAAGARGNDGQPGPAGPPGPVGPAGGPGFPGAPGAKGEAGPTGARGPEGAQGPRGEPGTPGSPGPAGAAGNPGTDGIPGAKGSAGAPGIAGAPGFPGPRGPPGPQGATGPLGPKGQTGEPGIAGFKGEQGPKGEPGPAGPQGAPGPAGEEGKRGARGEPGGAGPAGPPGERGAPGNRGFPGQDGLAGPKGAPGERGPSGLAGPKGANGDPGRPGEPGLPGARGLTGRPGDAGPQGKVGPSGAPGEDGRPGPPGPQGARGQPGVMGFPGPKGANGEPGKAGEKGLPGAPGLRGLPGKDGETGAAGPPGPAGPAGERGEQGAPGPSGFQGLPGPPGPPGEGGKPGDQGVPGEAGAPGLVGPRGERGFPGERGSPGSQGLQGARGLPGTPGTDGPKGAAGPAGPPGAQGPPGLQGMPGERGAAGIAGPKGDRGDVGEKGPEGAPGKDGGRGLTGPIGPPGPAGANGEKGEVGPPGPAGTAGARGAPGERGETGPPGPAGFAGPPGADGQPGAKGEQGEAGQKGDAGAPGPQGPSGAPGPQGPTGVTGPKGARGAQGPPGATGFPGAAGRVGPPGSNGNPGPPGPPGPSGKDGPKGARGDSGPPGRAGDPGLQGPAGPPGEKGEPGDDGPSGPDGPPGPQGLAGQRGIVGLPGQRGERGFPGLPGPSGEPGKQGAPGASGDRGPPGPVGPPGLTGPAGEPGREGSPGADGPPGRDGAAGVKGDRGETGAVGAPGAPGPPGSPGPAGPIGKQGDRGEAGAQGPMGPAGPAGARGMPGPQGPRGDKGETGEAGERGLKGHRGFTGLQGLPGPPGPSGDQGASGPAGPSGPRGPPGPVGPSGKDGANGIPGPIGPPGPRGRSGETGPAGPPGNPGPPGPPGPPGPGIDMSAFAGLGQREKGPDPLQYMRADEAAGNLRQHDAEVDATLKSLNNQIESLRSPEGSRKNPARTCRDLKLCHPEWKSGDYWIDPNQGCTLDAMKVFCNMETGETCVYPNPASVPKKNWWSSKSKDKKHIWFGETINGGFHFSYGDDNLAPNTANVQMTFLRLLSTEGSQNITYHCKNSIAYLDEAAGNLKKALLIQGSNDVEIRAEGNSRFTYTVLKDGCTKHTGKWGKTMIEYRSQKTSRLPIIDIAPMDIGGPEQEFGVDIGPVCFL

| Variant | effect of a mutation on the interaction |
| --- | --- |
| N344A | with no effect |

Variants of: B1
Settings: with co2a1_bovin COL2A1, P02459
Remark: another data set of the same source

| Variant | effect of a mutation on the interaction |
| --- | --- |
| N76A | increasing interaction strength |

— IntAct's records for PubMed 20729554
